These results are taken from US20020115631A1 (IDUN PHARMACEUTICALS, published 2002).

The target of experiment [1] is T1, full length human Bad expressed as a fusion protein with the DNA-binding protein LexA (bait, vector pEGE202) (human, UniProt P0A7C2 1-202 (Escherichia coli entry)).
T1 construct: Expressed in yeast EGY191 for the two-hybrid assay; also called Bad-bait; LexA-Bad
T1 sequence: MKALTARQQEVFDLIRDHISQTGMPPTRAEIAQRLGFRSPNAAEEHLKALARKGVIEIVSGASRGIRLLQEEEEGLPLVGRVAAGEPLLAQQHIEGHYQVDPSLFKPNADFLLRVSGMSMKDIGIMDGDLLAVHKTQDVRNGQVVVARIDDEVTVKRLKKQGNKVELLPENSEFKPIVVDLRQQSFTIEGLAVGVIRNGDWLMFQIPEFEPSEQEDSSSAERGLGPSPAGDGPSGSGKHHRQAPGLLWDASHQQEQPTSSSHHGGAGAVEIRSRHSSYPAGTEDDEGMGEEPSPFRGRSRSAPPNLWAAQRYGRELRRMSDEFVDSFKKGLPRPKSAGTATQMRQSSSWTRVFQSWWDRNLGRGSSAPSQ
As to the kind of experiment: yeast two-hybrid, beta-galactosidase reporter (LexA-Bad bait, B42 prey). From the text: Briefly, the full length human Bad sequence was subcloned into the yeast 2-hybrid vector pEGE202, or “bait-vector” to express Bad as a fusion protein wish the DNA-binding protein LexA (Ruden et al., Nature (1991) 350:426-430). Human Bcl-2, Bcl-X, Bax, Bak and Bad were similarly cloned into the yeast 2-hybrid vector pJG4-5, or “prey-vector” to expressed these Bcl-2 family members as fusion proteins with the transcriptional activator B42 (Gyuris et al., Cell (1993) 75:791-803). Briefly, the full length human Bad sequence was amplified by PCR and subcloned into the bait-vector. For the PCR reaction we used the following primers: 5′ATCAGTGAATTCACTATGTTCCAGATCCCA GAC3′ (SEQ ID NO: 4) and 5′ ATCGATCTCGAGTCACTGGGAGGGGGCGGA GCT3′ (SEQ ID NO: 5). The resultant PCR fragment was digested with EcoRI and Xho I and then subcloned into the bait vector. The human Bad sequence was also PCR amplified and subcloned into the prey-vector using the same primers and subcloning strategy as described above. […]
To determine if human Bad binds to any of the above Bcl-2 family members, the Bad-bait plasmid was cotransformed with every prey plasmid and the reporter plasmid p18-34 into the yeast strain EGY191. […] The reaction was stopped with 0.4 M NaOH and the plate was read at an OD 420 nm.

In experiment [2] the target is T2, GST-Bax fusion protein (pGEX 4T1, N-terminal glutathione-S-transferase tag) (human, UniProt Q07812 1-171).
T2 construct: no residue range is printed; also called pGEX Bax
As to the kind of experiment: ELISA, 6HBad coated on the plate, GST fusion in solution, anti-GST detection. In general terms: An ELISA detects its analyte on a solid surface through an enzyme-linked reagent.

Experiment [3] has as its target T3, GST-Bcl-xL fusion protein (pGEX 4T1, N-terminal glutathione-S-transferase tag) (human, UniProt Q07817 1-212).
T3 construct: no residue range is printed; also called pGEX-Bcl-XL
Described as above.

T3 sequence (Q07817 1-212): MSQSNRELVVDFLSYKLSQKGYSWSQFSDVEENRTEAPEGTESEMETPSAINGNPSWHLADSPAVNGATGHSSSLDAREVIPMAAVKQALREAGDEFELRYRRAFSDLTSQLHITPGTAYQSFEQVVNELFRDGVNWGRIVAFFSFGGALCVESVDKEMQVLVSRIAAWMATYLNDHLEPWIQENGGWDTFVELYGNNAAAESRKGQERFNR
T2 sequence (Q07812 1-171): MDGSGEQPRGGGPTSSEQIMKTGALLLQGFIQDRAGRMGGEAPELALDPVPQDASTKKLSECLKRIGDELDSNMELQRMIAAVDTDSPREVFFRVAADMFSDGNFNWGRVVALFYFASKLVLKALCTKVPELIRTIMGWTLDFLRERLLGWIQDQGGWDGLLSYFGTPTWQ

B1: human Bak expressed as a fusion protein with the transcriptional activator B42 (prey, vector pJG4-5) (other, UniProt Q16611 1-187, looked up, not shown: large carriers)
chain: MASGQGPGPPRQECGEPALPSASEEQVAQDTEEVFRSYVFYRHQQEQEAEGVAAPADPEMVTLPLQPSSTMGQVGRQLAIIGDDINRRYDSEFQTMLQHLQPTAENAYEYFTKIATSLFESGINWGRVVALLGFGYRLALHVYQHGLTGFLGQVTRFVVDFMLHHCIARWIAQRGGWVAALNLGNGP
notes: no residue range is printed; also called B42-Bak
Consider B1, for which, in experiment [1], the binding result is “no binding”.

B2: 6HBad fusion protein (full length human Bad with N-terminal six residue Histidine tag, construct pET-15 6H Bad) (other, not shown: small tags and cut ends)
chain: MFQIPEFEPSEQEDSSSAERGLGPSPAGDGPSGSGKHHRQAPGLLWDASHQQEQPTSSSHHGGAGAVEIRSRHSSYPAGTEDDEGMGEEPSPFRGRSRSAPPNLWAAQRYGRELRRMSDEFVDSFKKGLPRPKSAGTATQMRQSSSWTRVFQSWWDRNLGRGSSAPSQ
notes: Made in E. coli BL21 plysS, purified on nickel, coated on ELISA plates at 4 ug/ml; also called human 6HBad
With B2, the binding result was “no binding” in experiment [2] and “binds” in experiment [3].

B3: human Bad expressed as a fusion protein with the transcriptional activator B42 (prey, vector pJG4-5) (other, not shown: large carriers)
chain: MFQIPEFEPSEQEDSSSAERGLGPSPAGDGPSGSGKHHRQAPGLLWDASHQQEQPTSSSHHGGAGAVEIRSRHSSYPAGTEDDEGMGEEPSPFRGRSRSAPPNLWAAQRYGRELRRMSDEFVDSFKKGLPRPKSAGTATQMRQSSSWTRVFQSWWDRNLGRGSSAPSQ
notes: also called itself; B42-Bad
Turning to B3, the binding result in experiment [1] is on record as “no binding”.
